According to patent US20120316071A1 (published 2012):
Changes are numbered by the printed parent chain. In names and notes the source's numbering stands. Blank lines part the entries; values can stand above or below the binder they belong to.

Key:
[1] = molecular target: T1, rHuman CD44/Fc Chimera, CF (R&D Systems Cat#3660-CD) (human, UniProt P16070 21-220); experiment: ECL Multispot (MSD), antigen spotted on plate, Fab in solution; blank spot 256
[2] = molecular target: T2, rHuman HGF R/c-MET/Fc Chimera, CF (R&D Systems Cat#358-MT/CF) (human, UniProt P08581 25-932); experiment: as above
[3] = molecular target: T3, rHuman P-Cadherin/Fc Chimera, CF (R&D Systems Cat#861-PC) (human, UniProt P22223 108-654); experiment: as above
[4] = molecular target: T4, rHuman Notch-1/Fc Chimera, CF (R&D Systems Cat#3647-TK) (human); experiment: as above
T4 chain: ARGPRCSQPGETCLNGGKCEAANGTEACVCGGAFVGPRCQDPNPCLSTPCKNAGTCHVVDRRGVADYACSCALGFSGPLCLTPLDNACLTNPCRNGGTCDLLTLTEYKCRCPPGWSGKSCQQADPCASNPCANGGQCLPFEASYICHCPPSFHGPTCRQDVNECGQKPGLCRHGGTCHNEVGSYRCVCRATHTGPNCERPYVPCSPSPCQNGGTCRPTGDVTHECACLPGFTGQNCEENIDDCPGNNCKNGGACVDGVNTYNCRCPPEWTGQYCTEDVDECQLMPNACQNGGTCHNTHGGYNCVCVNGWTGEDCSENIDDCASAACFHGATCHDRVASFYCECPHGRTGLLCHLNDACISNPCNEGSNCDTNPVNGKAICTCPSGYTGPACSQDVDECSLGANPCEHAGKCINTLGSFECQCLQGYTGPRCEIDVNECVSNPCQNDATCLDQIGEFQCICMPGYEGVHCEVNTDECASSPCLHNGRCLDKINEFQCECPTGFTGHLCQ

[5] = molecular target: T5, rHuman Erythropoietin R/Fc Chimera, CF (R&D Systems Cat#963-ER) (human, UniProt P19235 25-250); experiment: as above
[6] = molecular target: T1, rHuman CD44/Fc Chimera, CF (R&D Systems …); experiment: ECL Multispot (MSD), antigen spotted on plate, Fab in solution; blank spot 331
[7] = molecular target: T3, rHuman P-Cadherin/Fc Chimera, CF (R&D …); experiment: as above
[8] = molecular target: T4, rHuman Notch-1/Fc Chimera, CF (R&D …); experiment: as above
[9] = molecular target: T5, rHuman Erythropoietin R/Fc Chimera, CF …; experiment: as above
[10] = molecular target: T1, rHuman CD44/Fc Chimera, CF (R&D Systems …); experiment: ECL Multispot (MSD), antigen spotted on plate, Fab in solution; blank spot 438
[11] = molecular target: T2, rHuman HGF R/c-MET/Fc Chimera, CF (R&D …); experiment: as above
[12] = molecular target: T3, rHuman P-Cadherin/Fc Chimera, CF (R&D …); experiment: as above
[13] = molecular target: T4, rHuman Notch-1/Fc Chimera, CF (R&D …); experiment: as above
[14] = molecular target: T5, rHuman Erythropoietin R/Fc Chimera, CF …; experiment: as above
[15] = molecular target: T1, rHuman CD44/Fc Chimera, CF (R&D Systems …); experiment: ECL Multispot (MSD), antigen spotted on plate, Fab in solution; blank spot 200
[16] = molecular target: T2, rHuman HGF R/c-MET/Fc Chimera, CF (R&D …); experiment: as above
[17] = molecular target: T3, rHuman P-Cadherin/Fc Chimera, CF (R&D …); experiment: as above
[18] = molecular target: T4, rHuman Notch-1/Fc Chimera, CF (R&D …); experiment: as above
[19] = molecular target: T5, rHuman Erythropoietin R/Fc Chimera, CF …; experiment: as above
[20] = molecular target: T1, rHuman CD44/Fc Chimera, CF (R&D Systems …); experiment: ECL Multispot (MSD), antigen spotted on plate, Fab in solution; blank spot 479
[21] = molecular target: T2, rHuman HGF R/c-MET/Fc Chimera, CF (R&D …); experiment: as above
[22] = molecular target: T3, rHuman P-Cadherin/Fc Chimera, CF (R&D …); experiment: as above
[23] = molecular target: T4, rHuman Notch-1/Fc Chimera, CF (R&D …); experiment: as above
[24] = molecular target: T5, rHuman Erythropoietin R/Fc Chimera, CF …; experiment: as above
[25] = molecular target: T1, rHuman CD44/Fc Chimera, CF (R&D Systems …); experiment: ECL Multispot (MSD), antigen spotted on plate, Fab in solution; blank spot 206
[26] = molecular target: T2, rHuman HGF R/c-MET/Fc Chimera, CF (R&D …); experiment: as above
[27] = molecular target: T3, rHuman P-Cadherin/Fc Chimera, CF (R&D …); experiment: as above
[28] = molecular target: T4, rHuman Notch-1/Fc Chimera, CF (R&D …); experiment: as above
[29] = molecular target: T5, rHuman Erythropoietin R/Fc Chimera, CF …; experiment: as above
[30] = molecular target: T1, rHuman CD44/Fc Chimera, CF (R&D Systems …); experiment: ECL Multispot (MSD), antigen spotted on plate, Fab in solution; blank spot 239
[31] = molecular target: T2, rHuman HGF R/c-MET/Fc Chimera, CF (R&D …); experiment: as above
[32] = molecular target: T3, rHuman P-Cadherin/Fc Chimera, CF (R&D …); experiment: as above
[33] = molecular target: T4, rHuman Notch-1/Fc Chimera, CF (R&D …); experiment: as above
[34] = molecular target: T5, rHuman Erythropoietin R/Fc Chimera, CF …; experiment: as above

T2 sequence (P08581 25-932, change not shown): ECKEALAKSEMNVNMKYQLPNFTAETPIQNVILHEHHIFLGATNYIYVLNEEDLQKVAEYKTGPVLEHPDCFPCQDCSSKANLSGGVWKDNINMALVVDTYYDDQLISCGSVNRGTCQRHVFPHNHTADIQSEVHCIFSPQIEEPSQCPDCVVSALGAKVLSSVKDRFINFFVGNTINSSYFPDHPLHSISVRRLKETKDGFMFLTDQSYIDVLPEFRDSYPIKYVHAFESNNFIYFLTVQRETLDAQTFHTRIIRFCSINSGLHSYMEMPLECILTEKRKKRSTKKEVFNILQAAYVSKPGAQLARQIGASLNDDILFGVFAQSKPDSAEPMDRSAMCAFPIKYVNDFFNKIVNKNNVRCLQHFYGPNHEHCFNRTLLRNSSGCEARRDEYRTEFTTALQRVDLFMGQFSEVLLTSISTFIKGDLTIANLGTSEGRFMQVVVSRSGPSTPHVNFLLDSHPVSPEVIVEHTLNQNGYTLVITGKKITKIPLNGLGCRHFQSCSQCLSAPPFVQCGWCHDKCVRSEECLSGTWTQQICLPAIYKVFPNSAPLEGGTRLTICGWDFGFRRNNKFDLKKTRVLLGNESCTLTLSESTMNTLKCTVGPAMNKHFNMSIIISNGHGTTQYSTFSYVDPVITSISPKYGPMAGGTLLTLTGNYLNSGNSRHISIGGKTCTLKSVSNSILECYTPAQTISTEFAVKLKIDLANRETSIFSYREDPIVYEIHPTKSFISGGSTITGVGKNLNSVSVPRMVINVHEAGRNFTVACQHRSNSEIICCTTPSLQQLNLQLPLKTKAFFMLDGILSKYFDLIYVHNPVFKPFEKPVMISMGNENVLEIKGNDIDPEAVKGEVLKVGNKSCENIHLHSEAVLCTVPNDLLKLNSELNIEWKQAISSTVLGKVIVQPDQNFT

B1: Fab VH1-46_IGHD6-6*01_IGHJ1*01 S102A/S103P/S104F/H111F (APFF) & L6_IGKJ1*01 W94R (Fab, V domains shown)
VH: QVQLVQSGAEVKKPGASVKVSCKASGYTFTSYYMHWVRQAPGQGLEWMGIINPSGGSTSYAQKFQGRVTMTRDTSTSTVYMELSSLRSEDTAVYYCAREEYAPFSAEYFQFWGQGTLVTVSS
VL: EIVLTQSPATLSLSPGERATLSCRASQSVSSYLAWYQQKPGQAPRLLIYDASNRATGIPARFSGSGSGTDFTLTISSLEPEDFAVYYCQQRSNRPPWTFGQGTKVEIKR
notes: also called APFF / W94R
ECL signal [1]: 443 | ECL signal [2]: 293 | ECL signal [3]: 364 | ECL signal [4]: 375 | ECL signal [5]: 546

B2: Fab VH1-46_IGHD6-6*01_IGHJ1*01 S102A/S103P/S104F/H111F (APFF) & L6_IGKJ1*01 N93H (Fab, V domains shown)
VH: B1 VH
VL: B1 VL with N93H, R94W
notes: also called APFF / N93H
ECL signal [6]: 345 | ECL signal [7]: 293 | ECL signal [8]: 342 | ECL signal [9]: 425

B6: Fab VH1-46_IGHD6-6*01_IGHJ1*01 S102A/S103P/S104F/H111F (APFF) & L6_IGKJ1*01 N93S (Fab, V domains shown)
VH: B1 VH
VL: B1 VL with N93S, R94W
notes: also called APFF / N93S
ECL signal [25]: 346 | ECL signal [26]: 328 | ECL signal [27]: 321 | ECL signal [28]: 345 | ECL signal [29]: 420

B7: Fab VH1-46_IGHD6-6*01_IGHJ1*01 S102A/S103P/S104F/H111F (APFF) & L6_IGKJ1*01 N93Q (Fab, V domains shown)
VH: B1 VH
VL: B1 VL with N93Q, R94W
notes: also called APFF / N93Q
ECL signal [30]: 452 | ECL signal [31]: 309 | ECL signal [32]: 304 | ECL signal [33]: 310 | ECL signal [34]: 477

Second part, the binder after the results:

ECL signal [10]: 453 | ECL signal [11]: 377 | ECL signal [12]: 481 | ECL signal [13]: 418 | ECL signal [14]: 432
B3: Fab VH1-46_IGHD6-6*01_IGHJ1*01 S102A/S103P/S104F/H111F (APFF) & L6_IGKJ1*01 W94T (Fab, V domains shown)
VH: B1 VH
VL: B1 VL with R94T
notes: also called APFF / W94T

ECL signal [15]: 309 | ECL signal [16]: 187 | ECL signal [17]: 296 | ECL signal [18]: 369 | ECL signal [19]: 333
B4: Fab VH1-46_IGHD6-6*01_IGHJ1*01 S102A/S103P/S104F/H111F (APFF) & L6_IGKJ1*01 W94L (Fab, V domains shown)
VH: B1 VH
VL: B1 VL with R94L
notes: also called APFF / W94L

ECL signal [20]: 469 | ECL signal [21]: 453 | ECL signal [22]: 466 | ECL signal [23]: 486 | ECL signal [24]: 506
B5: Fab VH1-46_IGHD6-6*01_IGHJ1*01 S102A/S103P/S104F/H111F (APFF) & L6_IGKJ1*01 W94S (Fab, V domains shown)
VH: B1 VH
VL: B1 VL with R94S
notes: also called APFF / W94S
